Measured values reported in publication PMC3959856.

Target: SpyTag-MBP (Streptococcus pyogenes)
Assay: covalent adduct formation by SDS-PAGE densitometry

**Q.** For “full-length SpyCatcher (as used in the reaction assay of Fig. 4b) (domain or fragment)”, which percent covalent complex formation after 1 min is on record?
**A.** Its percent covalent complex formation after 1 min is 40%.

**Q.** What about the percent covalent complex formation after 10 min of the same substance?
**A.** The percent covalent complex formation after 10 min was 65%.
